According to US6787341B2, “Pharmacological targeting of bacterial DNA ligase for treatment and prevention of bacterial infections” (priority 2001, dated 2004):
Where a chain is given by its changes, count along the chain named. In names and notes the source's numbering stands.

B1: D32A: E. coli LigA with Asp32 replaced by alanine (protein, UniProt P15042 1-671, looked up, variant D32A)
DNA ligase: MESIEQQLTELRTTLRHHEYLYHVMDAPEIPAAEYDRLMRELRELETKHPELITPDSPTQRVGAAPLAAFSQIRHEVPMLSLDNVFDEESFLAFNKRVQDRLKNNEKVTWCCELKLDGLAVSILYENGVLVSAATRGDGTTGEDITSNVRTIRAIPLKLHGENIPARLEVRGEVFLPQAGFEKINEDARRTGGKVFANPRNAAAGSLRQLDPRITAKRPLTFFCYGVGVLEGGELPDTHLGRLLQFKKWGLPVSDRVTLCESAEEVLAFYHKVEEDRPTLGFDIDGVVIKVNSLAQQEQLGFVARAPRWAVAFKFPAQEQMTFVRDVEFQVGRTGAITPVARLEPVHVAGVLVSNATLHNADEIERLGLRIGDKVVIRRAGDVIPQVVNVVLSERPEDTREVVFPTHCPVCGSDVERVEGEAVARCTGGLICGAQRKESLKHFVSRRAMDVDGMGDKIIDQLVEKEYVHTPADLFKLTAGKLTGLERMGPKSAQNVVNALEKAKETTFARFLYALGIREVGEATAAGLAAYFGTLEALEAASIEELQKVPDVGIVVASHVHNFFAEESNRNVISELLAEGVHWPAPIVINAEEIDSPFAGKTVVLTGSLSQMSRDDAKARLVELGAKVAGSVSKKTDLVIAGEAAGSKLAKAQELGIEVIDEAEMLRLLGS
B2: Y22A: E. coli LigA with Tyr22 replaced by alanine (protein, UniProt P15042 1-671, looked up, variant Y22A)
DNA ligase: B1 DNA ligase with Y22A, A32D
B3: D36A: E. coli LigA with Asp36 replaced by alanine (protein, UniProt P15042 1-671, looked up, variant D36A)
DNA ligase: B1 DNA ligase with A32D, D36A
B4: H23A: E. coli LigA with His23 replaced by alanine (protein, UniProt P15042 1-671, looked up, variant H23A)
DNA ligase: B1 DNA ligase with H23A, A32D
B5: E10A: E. coli LigA with Glu10 replaced by alanine in domain Ia (protein, UniProt P15042 1-671, looked up, variant E10A)
DNA ligase: B1 DNA ligase with E10A, A32D
B6: Y35A: E. coli LigA with Tyr35 replaced by alanine (protein, UniProt P15042 1-671, looked up, variant Y35A)
DNA ligase: B1 DNA ligase with A32D, Y35A
B7: NΔ38: N-terminal deletion of E. coli DNA ligase LigA eliminating part of domain Ia (protein, UniProt P15042 39-671, looked up, fragment)
chain: MRELRELETKHPELITPDSPTQRVGAAPLAAFSQIRHEVPMLSLDNVFDEESFLAFNKRVQDRLKNNEKVTWCCELKLDGLAVSILYENGVLVSAATRGDGTTGEDITSNVRTIRAIPLKLHGENIPARLEVRGEVFLPQAGFEKINEDARRTGGKVFANPRNAAAGSLRQLDPRITAKRPLTFFCYGVGVLEGGELPDTHLGRLLQFKKWGLPVSDRVTLCESAEEVLAFYHKVEEDRPTLGFDIDGVVIKVNSLAQQEQLGFVARAPRWAVAFKFPAQEQMTFVRDVEFQVGRTGAITPVARLEPVHVAGVLVSNATLHNADEIERLGLRIGDKVVIRRAGDVIPQVVNVVLSERPEDTREVVFPTHCPVCGSDVERVEGEAVARCTGGLICGAQRKESLKHFVSRRAMDVDGMGDKIIDQLVEKEYVHTPADLFKLTAGKLTGLERMGPKSAQNVVNALEKAKETTFARFLYALGIREVGEATAAGLAAYFGTLEALEAASIEELQKVPDVGIVVASHVHNFFAEESNRNVISELLAEGVHWPAPIVINAEEIDSPFAGKTVVLTGSLSQMSRDDAKARLVELGAKVAGSVSKKTDLVIAGEAAGSKLAKAQELGIEVIDEAEMLRLLGS
B8: NΔ78: N-terminal deletion of E. coli DNA ligase LigA eliminating domain Ia (protein, UniProt P15042 79-671, looked up, fragment)
chain: MLSLDNVFDEESFLAFNKRVQDRLKNNEKVTWCCELKLDGLAVSILYENGVLVSAATRGDGTTGEDITSNVRTIRAIPLKLHGENIPARLEVRGEVFLPQAGFEKINEDARRTGGKVFANPRNAAAGSLRQLDPRITAKRPLTFFCYGVGVLEGGELPDTHLGRLLQFKKWGLPVSDRVTLCESAEEVLAFYHKVEEDRPTLGFDIDGVVIKVNSLAQQEQLGFVARAPRWAVAFKFPAQEQMTFVRDVEFQVGRTGAITPVARLEPVHVAGVLVSNATLHNADEIERLGLRIGDKVVIRRAGDVIPQVVNVVLSERPEDTREVVFPTHCPVCGSDVERVEGEAVARCTGGLICGAQRKESLKHFVSRRAMDVDGMGDKIIDQLVEKEYVHTPADLFKLTAGKLTGLERMGPKSAQNVVNALEKAKETTFARFLYALGIREVGEATAAGLAAYFGTLEALEAASIEELQKVPDVGIVVASHVHNFFAEESNRNVISELLAEGVHWPAPIVINAEEIDSPFAGKTVVLTGSLSQMSRDDAKARLVELGAKVAGSVSKKTDLVIAGEAAGSKLAKAQELGIEVIDEAEMLRLLGS

System: E. coli LigA
Type: biochemical
Conditions: not given
Description: (§1) FIG. 12A: Aliquots (5 μg) of wild-type (WT) E. coli ligase, N-terminal deletion mutants NΔ38 and NΔ78, and the full-length ligase proteins containing the indicated alanine mutations in domain Ia were analyzed by SDS-PAGE. A Coomassie blue-stained gel is shown. FIG. 12B: Ligase adenylation reaction mixtures (20 μl) containing 50 mM Tris-HCl (pH 7.5), 5 mM DTT, 5 mM MgCl2, 1 μM [α-^32P]NAD^+ and 8 pmol of WT ligase, NΔ38, NΔ78, or the indicated alanine mutants were incubated for 5 min at 37° C. The reaction products were resolved by SDS-PAGE and visualized by autoradiography. FIG. 12C: Nick joining reaction mixtures (20 μl) containing 50 mM Tris-HCl (pH 7.5), 10 mM (NH4)2SO4, 5 mM DTT, 5 mM MgCl2, 20 μM NAD^+, 1 pmol of ^32P-labeled nicked DNA, and increasing amounts of WT ligase or the indicated alanine mutants were incubated for 10 min at 22° C. The extents of ligation are plotted as a function of input protein.
To further probe the role of domain Ia in NAD^+ recognition and nucleotidyl transfer, single alanine substitutions were introduced at six positions in the Ia domain of E. coli LigA. The six mutated Eco ligase residues—Glu10, Tyr22, His23, Asp32, Tyr35, and Asp36—correspond to the six residues that were subjected to alanine scanning mutagenesis in AmEPV ligase (FIG. 11). […] The conserved positions are denoted by shaded boxes in FIG. 11. The Eco ligase mutants E10A, Y22A, H23A, D32A, Y35A, and D36A were produced in E. coli and purified by Ni-agarose chromatography in parallel with wild-type ligase (FIG. 12A).
To evaluate the roles of charge, hydrogen bonding potential, and steric constraints in the functions of the domain Ia residues implicated in the step 1 reaction with NAD^+, the effects of conservative substitutions were tested. Tyr22 and Tyr35 were replaced by Phe and Ser, His23 was changed to Tyr, and Asp32 and Asp36 were mutated to Glu and Asn. The recombinant mutant ligases were purified from soluble bacterial extracts by Ni-agarose chromatography (FIG. 15A). The specific activity of each mutant was determined under steady-state conditions by protein titration and normalized to the specific activity of wild-type ligase.

| Molecule | nick ligation (qualitative) |
| --- | --- |
| B1 | virtually inert |
| B2 | virtually inert |
| B3 | virtually inert |

Same assay, conditions: specific activity by protein titration under steady-state conditions, normalized to wild-type ligase

| Molecule | Nick Joining Activity (% of WT) |
| --- | --- |
| B4 | 10 % of WT |
| B1 | 0.2 % of WT |
| B5 | 90 % of WT |
| B2 | 0.1 % of WT |
| B6 | 2 % of WT |
| B3 | 0.2 % of WT |

System: E. coli LigA
Type: biochemical
Conditions: 1 μM [32P-AMP]NAD+, 15-120 s
Description: as §1
FIG. 15A: Aliquots (5 μg) of wild-type (WT) E. coli ligase and proteins containing the indicated mutations in domain Ia were analyzed by SDS-PAGE. The Coomassie blue-stained gel is shown. The positions and sizes (in kDa) of marker proteins are indicated on the left. FIG. 15B: Ligase adenylation reaction mixtures (20 μl) containing 50 mM Tris-HCl (pH 7.5), 5 mM DTT, 5 mM MgCl2, 1 μM [α-^32P]NAD^+ and 8 pmol of WT ligase or the indicated mutants were incubated for 5 min at 37° C. The reaction products were resolved by SDS-PAGE and visualized by autoradiography.
Reaction mixtures containing (per 20 μl) 50 mM Tris-HCl (pH 7.5), 5 mM DTT, 5 mM MgCl2, 1 μM [^32P-AMP]NAD^+ and 8 pmol of ligase were incubated at 22° C. Aliquots (20 μl) were withdrawn at 15, 30, 60 and 120 s and then quenched immediately with SDS. The products were analyzed by SDS-PAGE. Formation of the ligase-[^32P]AMP adduct is plotted as a function of time.
The first step in DNA ligation involves formation of a covalent enzyme-adenylate intermediate.

| Molecule | rate of ligase adenylation (kinetic pattern) |
| --- | --- |
| B4 | reacted slowly |

Same assay, conditions: qualitative

| Molecule | ligase adenylation (ligase-AMP formation) with NAD+ |
| --- | --- |
| B7 | inert |
| B8 | inert |
| B4 | less active |
| B1 | virtually inert |
| B5 | did not affect |
| B2 | virtually inert |
| B6 | less active |
| B3 | virtually inert |

System: E. coli LigA
Conditions: reference 19; cited from earlier work

| Molecule | nick joining activity (prior studies) |
| --- | --- |
| B7 | complete loss |
| B8 | complete loss |

System: E. coli LigA
Type: biochemical
Conditions: not given
Remark: another data set of the same source
Description: (§2) Reaction mixtures containing 1 pmol of ^32P-labeled nicked DNA-adenylate (AppDNA) and either 8 pmol of wild-type (WT) E. coli ligase, deletion mutants NΔ38 and NΔ78, or the full-length ligase proteins containing the indicated alanine mutations in domain Ia were incubated for 60 min at 22° C. The reaction products were resolved by denaturing PAGE. An autoradiograph of the gel is shown. Control reaction mixtures containing either ^32P-labeled nicked DNA-adenylate (AppDNA) or nicked DNA (pDNA) substrates and no ligase are shown in lanes -. The positions of the pDNA, AppDNA, and ligated 36-mer DNA strands are indicated by arrows on the right. The position of the radiolabeled phosphate of AppDNA is denoted by •. The nicked DNA-adenylate substrate used in the ligation reactions is illustrated at the bottom.
(§3) The nicked DNA-adenylate substrate is illustrated in FIG. 13. The DNA-adenylate ligation reaction mixtures (20 μl) contained 50 mM Tris-HCl (pH 7.5), 5 mM DTT, 5 mM MgCl2, 200 fmol of nicked DNA-adenylate substrate, 2 pmol of wild-type or mutant EcoLigA proteins as specified were incubated at 22° C. The sealing reactions were initiated by adding ligase. Aliquots (20 μl) were withdrawn at the times specified and quenched immediately with EDTA and formamide. The products were resolved by denaturing PAGE and the extents of ligation were determined by scanning the gel with a phosphorimager. The extent of strand joining is plotted as a function of reaction time.
(§4) The third step of the ligation pathway entails attack of the 3′ OH of the nick on the 5′ PO4 of the DNA-adenylate to form a phosphodiester and release AMP. Step 3 of the ligation reaction was assayed using a pre-adenylated nicked DNA substrate labeled with ^32P on the 5′ PO4 of the DNA-adenylate strand (FIG. 13).

| Molecule | effect on rate or extent (yield) of phosphodiester formation at a pre-adenylated nick |
| --- | --- |
| B7 | no effect |
| B2 | no effect |
| B3 | no effect |

Same assay, conditions: qualitative, magnesium, no added NAD+

| Molecule | phosphodiester formation at pre-adenylated nick |
| --- | --- |
| B7 | capable of forming a phosphodiester bond |
| B8 | capable of forming a phosphodiester bond |
| B4 | catalytically active |
| B1 | catalytically active |
| B5 | catalytically active |
| B2 | catalytically active |
| B6 | catalytically active |
| B3 | catalytically active |

Target: E. coli LigA (Escherichia coli, UniProt P15042)
Type: biochemical
Conditions: not given
Description: as §2, §3, §4

| Molecule | effect on the rate of approach to the endpoint of step 3 reaction |
| --- | --- |
| B8 | 2 fold |
